Read-outs that look alike come from different tables or passages of the source. Starred links: 1 amine or outer side, 2 acyl side, 3 side chain; linkers in the order of their positions; H or OH if unused. Non-standard residues stand in square brackets, D forms with d. Residues, ends and D or L forms follow the SMILES beside them. ξ: configuration not given here. *: point of attachment. GluureaLys(ε-3-ClBenzyl) = O=C(O)CC[C@H](NC(=O)N[C@@H](CCCCN(Cc1cccc(Cl)c1)*)C(=O)O)C(=O)O; Dolaproine = CO[C@@H]([C@@H]1CCCN1)[C@@H](C)C(=O)O; Dil = CC[C@H](C)[C@H](NC)[C@@H](CC(=O)O)OC; X1 = O=C(CCCc1cn(CCCN[*:1])nn1)[*:2]; PABC = O=C(OCc1ccc(N[*:1])cc1)[*:2]; X2 = C[C@@H](N*)[C@@H](O)c1ccccc1; Cit = NC(=O)NCCC[C@H](N)C(=O)O; Suc = O=C(CCC(=O)[*:2])[*:1]; NMeV = CN[C@H](C(=O)O)C(C)C; ξV = CC(C)C(N)C(=O)O; Ahx = NCCCCCC(=O)O
Experiment: Pharmacokinetics in plasma of rabbits after a single injection
Assay type: in vivo
Conditions: male, Soviet Chinchilla, rabbit, plasma; for level at 0.5 h: 0.50 hour; for level at 1.5 h: 1.50 hour
Text: The pharmacokinetics study for the Conjugate (I) product in plasma of rabbits and rats after a single injection.
The leporids and rodents are the standard targets for preclinical studies of potential drug products as well as determining the pharmacokinetic parameters. The rabbits and rats are recommended as test systems to study pharmacokinetic properties of pharmaceutical products by the regulatory documents (FIG. 7, FIG. 8).
[…] The pharmacokinetic data, determined from this number of test animals, are sufficient to obtain the primary quantitative characteristics of test product distribution and elimination and the calculation of descriptive statistics parameters.
• 1. Conjugate (1) • 2. Solubilizer Pluronic F127—in the amount, five-fold greater than the conjugate amount by weight. • 3, Diluent—Haemodes infusion solution. • Dimethyl sulfoxide—in the amount of 5% of the prepared volume. • Rabbit experiment (see Tables 5, 6), • Rat experiment (see Tables 7, 8).

[1] = rabbits N=6, read-out: Concentration in blood plasma, Geometr. mean
[2] = rabbits N=6, read-out: Concentration in blood plasma, Mean value
[3] = rabbits N=6, read-out: Concentration in blood plasma, Median

Work on `CC[C@H](C)[C@@H]([C@@H](CC(=O)N1CCC[C@H]1[C@H](OC)[C@@H](C)C(=O)N[C@H](C)[C@@H](O)c1ccccc1)OC)N(C)C(=O)[C@@H](NC(=O)[C@H](C(C)C)N(C)C(=O)OCc1ccc(NC(=O)[C@H](CCCNC(N)=O)NC(=O)C(NC(=O)CCCc2cn(CCCNC(=O)[C@H](Cc3ccc(O)cc3)NC(=O)[C@H](Cc3ccccc3)NC(=O)CCC(=O)NCCCCCC(=O)N(CCCC[C@H](NC(=O)N[C@@H](CCC(=O)O)C(=O)O)C(=O)O)Cc3cccc(Cl)c3)nn2)C(C)C)cc1)C(C)C` (stereo partly shown) [Conjugate (I)] ({GluureaLys(ε-3-ClBenzyl)-Ahx-Suc}-FY[X1][ξV][Cit][PABC][NMeV]V[Dil][Dolaproine]-X2) yielded an AUC0-t (intravenous, 0.81 mg/kg, rabbits N=6, read-out: AUC0-t, Geometr. mean) of 30200 ng·h/mL, an AUC0-t (intravenous, 0.81 mg/kg, rabbits N=6, read-out: AUC0-t, Mean value) of 30700 ng·h/mL and an AUC0-t (intravenous, 0.81 mg/kg, rabbits N=6, read-out: AUC0-t, Median) of 30200 ng·h/mL. The AUC(0-inf) (intravenous, 0.81 mg/kg, rabbits N=6, read-out: AUC0-∞, Geometr. mean) was 34700 ng·h/mL, the AUC(0-inf) (intravenous, 0.81 mg/kg, rabbits N=6, read-out: AUC0-∞, Mean value) was 35100 ng·h/mL and the AUC(0-inf) (intravenous, 0.81 mg/kg, rabbits N=6, read-out: AUC0-∞, Median) was 36100 ng·h/mL. It also gave an MRT last (intravenous, 0.81 mg/kg, rabbits N=6, read-out: MRT0-t, Geometr. mean) of 3.43 h, an MRT last (intravenous, 0.81 mg/kg, rabbits N=6, read-out: MRT0-t, Mean value) of 3.44 h and an MRT last (intravenous, 0.81 mg/kg, rabbits N=6, read-out: MRT0-t, Median) of 3.38 h. The half-life (intravenous, 0.81 mg/kg, rabbits N=6, read-out: T1/2, Geometr. mean (converted)) was 260 min, the half-life (intravenous, 0.81 mg/kg, rabbits N=6, read-out: T1/2, Mean value (converted)) was 275 min and the half-life (intravenous, 0.81 mg/kg, rabbits N=6, read-out: T1/2, Median (converted)) was 275 min. For the same compound, the Vd (intravenous, 0.81 mg/kg, rabbits N=6, read-out: Vd, Geometr. mean) was 0.146 L/kg, the Vd (intravenous, 0.81 mg/kg, rabbits N=6, read-out: Vd, Mean value) was 0.158 L/kg and the Vd (intravenous, 0.81 mg/kg, rabbits N=6, read-out: Vd, Median) was 0.144 L/kg. It also gave an AUC0-t (intravenous, 0.81 mg/kg, rabbits, individual animals, read-out: AUC0-t) of 31400 ng·h/mL, an AUC(0-inf) (intravenous, 0.81 mg/kg, rabbits, individual animals, read-out: AUC0-∞) of 35300 ng·h/mL and a C0 (intravenous, 0.81 mg/kg, rabbits, individual animals, read-out: C0) of 10700 ng/mL. It also gave an MRT last (intravenous, 0.81 mg/kg, rabbits, individual animals, read-out: MRT0-t) of 3.12 h, a level at 0.08 h [1] of 10300 ng/mL and a level at 0.08 h [2] of 10500 ng/mL. For the same compound, the level at 0.08 h [3] was 9600 ng/mL, the level at 0.25 h [1] was 9410 ng/mL and the level at 0.25 h [2] was 9670 ng/mL. It also gave a level at 0.25 h [3] of 9840 ng/mL, a level at 0.5 h [1] of 7410 ng/mL and a level at 0.5 h [2] of 7580 ng/mL. For the same compound, the level at 0.5 h [3] was 7100 ng/mL, the level at 1 h [1] was 6040 ng/mL and the level at 1 h [2] was 6160 ng/mL. For the same compound, the level at 1 h [3] was 5890 ng/mL, the level at 1.5 h [2] was 5120 ng/mL and the level at 1.5 h [3] was 4970 ng/mL. For the same compound, the level at 2 h [1] was 4570 ng/mL, the level at 2 h [2] was 4630 ng/mL and the level at 2 h [3] was 4510 ng/mL. The level at 3 h [1] was 3440 ng/mL, the level at 3 h [2] was 3520 ng/mL and the level at 3 h [3] was 3650 ng/mL. The level at 4 h [1] was 2430 ng/mL, the level at 4 h [2] was 2520 ng/mL and the level at 4 h [3] was 2540 ng/mL. It also gave a level at 6 h [1] of 1510 ng/mL, a level at 6 h [2] of 1540 ng/mL and a level at 6 h [3] of 1620 ng/mL. The level at 8 h [1] was 1180 ng/mL, the level at 8 h [2] was 1210 ng/mL and the level at 10 h [1] was 857 ng/mL. The level at 10 h [2] was 878 ng/mL.

— US12454527B2, “Conjugate monomethyl auristatin E to obtain a composition for treatment of prostate cancer” (priority 2019, dated 2025)
